{"source": "the supplement of paper PMC10567573", "parents": {"B1": {"name": "SPSB4 (parent)", "chain": "LDMDEGTLSFIVDGQYLGVAFRGL"}}}
{"variants_of": "B1", "assay": "protein stability index of a GFP-peptide fusion (GPS, HEK-293T) (PSI 1-6); higher = more stable", "settings": "c terminus: a fixed tail appended"}
{"variant": "LDMDEGTLSFIVDGTYLGVAFRGL", "protein stability index": 3.63}
{"variant": "LDMDEGTLSFIVDGMYLGVAFRGL", "protein stability index": 1.98}
{"variant": "LDMDEGTLSFIVDGQYLGVCFRGL", "protein stability index": 2.13}
{"variant": "LDMDEGTLSFIVDGQYLGVWFRGL", "protein stability index": 2.61}
{"variant": "LDMDEGTLSFIVDGQYLGVGFRGL", "protein stability index": 2.38}
{"variant": "LDMDEGTLSFIVDGQYLGVPFRGL", "protein stability index": 1.55}
{"variant": "LDMDEGTLSFIVDGQYLGVLFRGL", "protein stability index": 2.51}
{"variant": "LDMDEGTLSFIVDGQYLGVDFRGL", "protein stability index": 1.63}
{"variant": "LDMDEGTLSFIVDGQYLGVVFRGL", "protein stability index": 3.1}
{"variant": "LDMDEGTLSFIVDGQYLGVAFFGL", "protein stability index": 2.57}
{"variant": "LDMDEGTLSFIVDGQYLGVAFMGL", "protein stability index": 1.99}
{"variant": "LDMDEGTLSFIVDGQYLGVAFAGL", "protein stability index": 3}
{"variant": "LDMDEGTLSFIVDGQYLGVAFLGL", "protein stability index": 1.81}
{"variant": "LDMDEGTLSFIVDGQYLGVAFTGL", "protein stability index": 4.1}
{"variant": "LDMDEGTLSFIVDGQYLGVAFWGL", "protein stability index": 1.31}
{"variant": "LDMDEGTLSFIVDGQYLGVAFYGL", "protein stability index": 3.56}
{"variant": "LDMDEGTLSFIVDGQYLGVAFIGL", "protein stability index": 2.24}
{"variant": "LDMDEGTLSFIVDGQYLPVAFRGL", "protein stability index": 1.26}
{"variant": "LDMDEGTLSFIVDGQYLNVAFRGL", "protein stability index": 2.19}
{"variant": "LDMDEGTLSFIVDGQYLTVAFRGL", "protein stability index": 3.06}
{"variant": "LDMDEGTLSFIVDGQYLFVAFRGL", "protein stability index": 2.44}
{"variant": "LDMLEGTLSFIVDGQYLGVAFRGL", "protein stability index": 4.51}
{"variant": "LDMCEGTLSFIVDGQYLGVAFRGL", "protein stability index": 1.66}
{"variant": "LDMREGTLSFIVDGQYLGVAFRGL", "protein stability index": 2.39}
{"variant": "LDMMEGTLSFIVDGQYLGVAFRGL", "protein stability index": 3.51}
{"variant": "LDMGEGTLSFIVDGQYLGVAFRGL", "protein stability index": 2.73}
{"variant": "LDMDEGTLSFIVDGQYLGVAQRGL", "protein stability index": 1.98}
{"variant": "LDMDEGTLSFIVDGQYLGVADRGL", "protein stability index": 2.31}
{"variant": "LDMDEGTLSFIVDGQYLGVALRGL", "protein stability index": 1.8}
{"variant": "LDMDEGTLSFIVDGQYLGVAYRGL", "protein stability index": 2.27}
{"variant": "LDMDEGTLSFIVDGQYLGVAGRGL", "protein stability index": 1.76}
{"variant": "LDMDEGTLSFIVDGQYLGVAERGL", "protein stability index": 1.96}
{"variant": "LDMDEGTLSFIVDGQYLGVAKRGL", "protein stability index": 2.39}
{"variant": "LDMDEGTLSFIVDGQYLGVARRGL", "protein stability index": 1.65}
{"variant": "LDMDEGTLSFIVDGQYLGVASRGL", "protein stability index": 2.18}
{"variant": "LDMDEGTLSFIVDGQYLGVAVRGL", "protein stability index": 2.46}
{"variant": "LDMDEGTLSFIVDGQYLGVANRGL", "protein stability index": 1.98}
{"variant": "LDMDEGTLSFIVDGQYLGVATRGL", "protein stability index": 2.04}
{"variant": "LDMDEGTLSFIVDGQYLGVAIRGL", "protein stability index": 2.95}
{"variant": "LDMDEGTLSFIVDGQYLGVACRGL", "protein stability index": 1.62}
{"variant": "LDMDEGTLSNIVDGQYLGVAFRGL", "protein stability index": 2.27}
{"variant": "LDMDEGTLSWIVDGQYLGVAFRGL", "protein stability index": 2.33}
{"variant": "LDMDEGTLSEIVDGQYLGVAFRGL", "protein stability index": 3.13}
{"variant": "LDMDEGTLSCIVDGQYLGVAFRGL", "protein stability index": 2.49}
{"variant": "LDMDEGTLSQIVDGQYLGVAFRGL", "protein stability index": 2}
{"variant": "LDMDEGTLSFISDGQYLGVAFRGL", "protein stability index": 1.8}
{"variant": "LDMDEGTLSFIMDGQYLGVAFRGL", "protein stability index": 2.67}
{"variant": "LDMDEGTLSFICDGQYLGVAFRGL", "protein stability index": 3.24}
{"variant": "LDMDEGTLSFIGDGQYLGVAFRGL", "protein stability index": 1.94}
{"variant": "LDMDEGTLSFIYDGQYLGVAFRGL", "protein stability index": 2.36}
{"variant": "LDMDEGTLSFIDDGQYLGVAFRGL", "protein stability index": 1.99}
{"variant": "LDMDEGTLSFIVDGQYLGNAFRGL", "protein stability index": 1.98}
{"variant": "LDMDEGTLSFIVDGQYLGPAFRGL", "protein stability index": 2.43}
{"variant": "LDMDEGTLSFIVDGQYLGAAFRGL", "protein stability index": 1.97}
{"variant": "LDMDEGTLSFIVDGQYLGYAFRGL", "protein stability index": 2.49}
{"variant": "LDMDEGTLSFIVDGQYLGGAFRGL", "protein stability index": 2.18}
{"variant": "LDMDEGTLSFIVDGQYLGEAFRGL", "protein stability index": 1.85}
{"variant": "LDMDEGTLSFIVDGQYLGDAFRGL", "protein stability index": 1.99}
{"variant": "LDMDEFTLSFIVDGQYLGVAFRGL", "protein stability index": 2.25}
{"variant": "LDMDEDTLSFIVDGQYLGVAFRGL", "protein stability index": 1.87}
{"variant": "LDMDEQTLSFIVDGQYLGVAFRGL", "protein stability index": 3.01}
{"variant": "LDMDERTLSFIVDGQYLGVAFRGL", "protein stability index": 2.28}
{"variant": "LDMDEKTLSFIVDGQYLGVAFRGL", "protein stability index": 2.78}
{"variant": "LDMDENTLSFIVDGQYLGVAFRGL", "protein stability index": 3.5}
{"variant": "LDMDEGTLSFIVSGQYLGVAFRGL", "protein stability index": 2.61}
{"variant": "LDMDEGTLSFIVVGQYLGVAFRGL", "protein stability index": 2.9}
{"variant": "LDMDEGTLSFIVWGQYLGVAFRGL", "protein stability index": 2.55}
{"variant": "LDMDEGTLSFIVPGQYLGVAFRGL", "protein stability index": 1.82}
{"variant": "LDMDEGTLSFIVIGQYLGVAFRGL", "protein stability index": 2.6}
{"variant": "LDMDEGTLSFIVKGQYLGVAFRGL", "protein stability index": 2.61}
{"variant": "LDMDEGTLSFIVEGQYLGVAFRGL", "protein stability index": 2.83}
{"variant": "LDMDEGTLSFIVYGQYLGVAFRGL", "protein stability index": 3.11}
{"variant": "LDMDEGTLSFIVTGQYLGVAFRGL", "protein stability index": 3.32}
{"variant": "IDMDEGTLSFIVDGQYLGVAFRGL", "protein stability index": 2.59}
{"variant": "LDMDYGTLSFIVDGQYLGVAFRGL", "protein stability index": 2.27}
{"variant": "LDMDNGTLSFIVDGQYLGVAFRGL", "protein stability index": 3.71}
{"variant": "LDMDRGTLSFIVDGQYLGVAFRGL", "protein stability index": 1.9}
{"variant": "LKMDEGTLSFIVDGQYLGVAFRGL", "protein stability index": 1.64}
{"variant": "LRMDEGTLSFIVDGQYLGVAFRGL", "protein stability index": 2.74}
{"variant": "LEMDEGTLSFIVDGQYLGVAFRGL", "protein stability index": 2.68}
{"variant": "LVMDEGTLSFIVDGQYLGVAFRGL", "protein stability index": 2.35}
{"variant": "LPMDEGTLSFIVDGQYLGVAFRGL", "protein stability index": 2.26}
{"variant": "LSMDEGTLSFIVDGQYLGVAFRGL", "protein stability index": 2.1}
{"variant": "LWMDEGTLSFIVDGQYLGVAFRGL", "protein stability index": 2.23}
{"variant": "LMMDEGTLSFIVDGQYLGVAFRGL", "protein stability index": 2.62}
{"variant": "LIMDEGTLSFIVDGQYLGVAFRGL", "protein stability index": 2.56}
{"variant": "LDRDEGTLSFIVDGQYLGVAFRGL", "protein stability index": 2.68}
{"variant": "LDGDEGTLSFIVDGQYLGVAFRGL", "protein stability index": 2.09}
{"variant": "LDHDEGTLSFIVDGQYLGVAFRGL", "protein stability index": 2.39}
{"variant": "LDNDEGTLSFIVDGQYLGVAFRGL", "protein stability index": 1.52}
{"variant": "LDLDEGTLSFIVDGQYLGVAFRGL", "protein stability index": 3.27}
{"variant": "LDKDEGTLSFIVDGQYLGVAFRGL", "protein stability index": 2.9}
{"variant": "LDDDEGTLSFIVDGQYLGVAFRGL", "protein stability index": 1.59}
{"variant": "LDEDEGTLSFIVDGQYLGVAFRGL", "protein stability index": 1.42}
